# From IntAct's records for PubMed 28380382
# B1: Complex III assembly factor LYRM7 (Homo sapiens), Q5U5X0 (parent)
# chain: MGRAVKVLQLFKTLHRTRQQVFKNDARALEAARIKINEEFKNNKSETSSKKIEELMKIGSDVELLLRTSVIQGIHTDHNTLKLVPRKDLLVENVPYCDAPTQKQ
# partner: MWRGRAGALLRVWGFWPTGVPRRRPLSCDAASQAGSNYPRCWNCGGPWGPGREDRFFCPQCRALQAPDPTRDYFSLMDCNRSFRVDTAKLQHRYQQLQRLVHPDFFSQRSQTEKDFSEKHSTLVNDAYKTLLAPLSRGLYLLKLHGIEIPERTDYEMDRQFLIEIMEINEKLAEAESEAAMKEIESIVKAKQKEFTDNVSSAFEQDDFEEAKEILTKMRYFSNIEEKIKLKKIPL
# Variants of: B1
# Settings: with hsc20_human HSCB
row,effect of a mutation on the interaction,Variant
1,with no effect,D25N
2,with no effect,V21A;F22A;K23A
3,disrupting interaction strength,L10A;F11A;K12A
